Source: paper PMC3197879

Target: YFP-PAX5-Foldon (not stated | phage T4) (UniProt P10104)
Experiment: SEC

stoichiometry N: 3
Substance: YFP-PAX5-Foldon (from UniProt P10104 458-484)
